The chains are these.
B1: 12389 (chimeric rabbit V regions/human Fc) expressed as hIgG4P (antibody, V domains shown)
VH: QSVEESGGRLVTPGTPLTLTCTVSGIDLSSNAMSWVRQAPGEGLEWIGTISSGGRTYYASWAKGRFTISKTSTTVDLKIPSPTTEDTATYFCGRGDGATGFNIWGPGTLVTVSS
VL: ALVMTQTPASVSEPVGGTVTIKCQASQSIYSYLSWYQQKPGQPPKLLIYKASTLASGVSSRFKGSGSGTQFTLTISDLECGDAATYYCQNHWNVGGNGWPFGGGTEVVVK
B2: 12389gL2gH1 hIgG4P (antibody)
heavy: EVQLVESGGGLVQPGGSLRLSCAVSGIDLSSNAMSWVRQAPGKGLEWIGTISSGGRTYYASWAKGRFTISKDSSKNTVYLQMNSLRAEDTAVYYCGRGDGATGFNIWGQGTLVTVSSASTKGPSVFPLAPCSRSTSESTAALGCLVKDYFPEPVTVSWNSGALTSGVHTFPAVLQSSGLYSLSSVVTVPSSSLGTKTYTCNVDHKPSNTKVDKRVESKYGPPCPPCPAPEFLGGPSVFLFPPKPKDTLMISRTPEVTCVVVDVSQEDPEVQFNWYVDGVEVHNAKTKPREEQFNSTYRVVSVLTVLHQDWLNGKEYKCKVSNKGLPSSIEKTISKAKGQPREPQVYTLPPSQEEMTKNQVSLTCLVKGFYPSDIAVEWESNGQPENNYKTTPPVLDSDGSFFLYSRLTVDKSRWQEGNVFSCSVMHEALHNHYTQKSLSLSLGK
light: AIVLTQSPSSLSASVGDRVTITCQASQSIYSYLSWYQQKPGKAPKLLIYKASTLASGVPSRFSGSGSGTDFTLTISSLQPEDFATYYCQNHWNVGGNGWPFGGGTKVEIKRTVAAPSVFIFPPSDEQLKSGTASVVCLLNNFYPREAKVQWKVDNALQSGNSQESVTEQDSKDSTYSLSSTLTLSKADYEKHKVYACEVTHQGLSSPVTKSFNRGEC
B3: 12389gL2gH8 hIgG4P (antibody, V domains shown)
VH: EVQLVESGGGLVQPGGSLRLSCAVSGIDLSSNAMSWVRQAPGKGLEWIGTISSGGRTYYASWAKGRFTISRDSSKNTVYLQMNSLRAEDTAVYYCGRGDGATGFNIWGQGTLVTVSS
VL: AIVLTQSPSSLSASVGDRVTITCQASQSIYSYLSWYQQKPGKAPKLLIYKASTLASGVPSRFSGSGSGTDFTLTISSLQPEDFATYYCQNHWNVGGNGWPFGGGTKVEIKR
B4: 12389gL2gH11 hIgG4P (antibody, V domains shown)
VH: B3 VH with R71K, V78L
VL: B3 VL
B5: 12389gL2gH16 hIgG4P (antibody)
heavy: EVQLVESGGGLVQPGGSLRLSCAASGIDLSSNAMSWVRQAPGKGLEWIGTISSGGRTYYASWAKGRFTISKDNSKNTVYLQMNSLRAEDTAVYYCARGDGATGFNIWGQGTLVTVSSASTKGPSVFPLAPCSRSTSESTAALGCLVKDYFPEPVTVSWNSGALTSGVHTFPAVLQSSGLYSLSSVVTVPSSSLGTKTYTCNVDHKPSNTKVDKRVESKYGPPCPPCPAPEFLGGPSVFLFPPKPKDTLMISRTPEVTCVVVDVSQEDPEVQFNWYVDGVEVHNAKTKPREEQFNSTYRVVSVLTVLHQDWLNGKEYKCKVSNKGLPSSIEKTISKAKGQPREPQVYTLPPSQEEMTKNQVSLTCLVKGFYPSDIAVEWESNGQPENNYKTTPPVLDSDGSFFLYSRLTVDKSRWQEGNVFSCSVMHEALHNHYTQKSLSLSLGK
light: B2 light
notes: also called Graft 12389gL2gH16
B6: 12389gL2gH5 hIgG4P (antibody, V domains shown)
VH: B3 VH with I48V, R71K
VL: B3 VL
B7: 12389gL2gH15 hIgG4P (antibody, V domains shown)
VH: B3 VH with R71K, S73N, G96A
VL: B3 VL
B8: 12389gL2gH14 hIgG4P (antibody, V domains shown)
VH: B3 VH with V24A, R71K, G96A
VL: B3 VL
B9: 12389gL2gH6 hIgG4P (antibody, V domains shown)
VH: B3 VH with G49S, R71K
VL: B3 VL
B10: 12389gL3gH1 hIgG4P (antibody)
heavy: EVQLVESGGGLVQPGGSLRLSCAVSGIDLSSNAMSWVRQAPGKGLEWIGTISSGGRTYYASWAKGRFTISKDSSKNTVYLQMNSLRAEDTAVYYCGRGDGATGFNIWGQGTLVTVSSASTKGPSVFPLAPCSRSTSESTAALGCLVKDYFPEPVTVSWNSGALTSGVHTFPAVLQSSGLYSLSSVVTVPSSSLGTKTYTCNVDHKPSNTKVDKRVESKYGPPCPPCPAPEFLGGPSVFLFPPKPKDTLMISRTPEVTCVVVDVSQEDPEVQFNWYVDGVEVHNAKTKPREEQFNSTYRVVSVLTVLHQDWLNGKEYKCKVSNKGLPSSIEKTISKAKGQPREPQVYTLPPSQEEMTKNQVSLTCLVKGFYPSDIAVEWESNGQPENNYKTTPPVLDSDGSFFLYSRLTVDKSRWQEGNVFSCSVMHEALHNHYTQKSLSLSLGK
light: B2 light with V3Q
B11: 12389gL2gH13 hIgG4P (antibody, V domains shown)
VH: B3 VH with V24A, R71K, S73N
VL: B3 VL
B12: 12389gL2gH9 hIgG4P (antibody, V domains shown)
VH: B3 VH with R71K, S73N
VL: B3 VL
B13: 12389gL2gH12 hIgG4P (antibody, V domains shown)
VH: B3 VH with R71K, G96A
VL: B3 VL
B14: 12389gL3gH16 hIgG4P (antibody)
heavy: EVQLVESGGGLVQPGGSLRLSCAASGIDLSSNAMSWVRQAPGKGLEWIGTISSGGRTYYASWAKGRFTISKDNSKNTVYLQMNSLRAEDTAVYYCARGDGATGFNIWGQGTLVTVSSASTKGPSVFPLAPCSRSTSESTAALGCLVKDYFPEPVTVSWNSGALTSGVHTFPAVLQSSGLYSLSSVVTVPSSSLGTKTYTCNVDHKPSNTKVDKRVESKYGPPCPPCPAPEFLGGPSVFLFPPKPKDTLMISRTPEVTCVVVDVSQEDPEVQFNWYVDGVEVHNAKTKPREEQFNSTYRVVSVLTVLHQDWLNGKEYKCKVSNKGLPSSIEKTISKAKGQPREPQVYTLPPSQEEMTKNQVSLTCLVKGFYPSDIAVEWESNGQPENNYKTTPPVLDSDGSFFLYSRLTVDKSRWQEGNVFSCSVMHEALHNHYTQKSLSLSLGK
light: B2 light with V3Q
B15: 12389gL1gH1 hIgG4P (antibody, V domains shown)
VH: B3 VH with R71K
VL: B3 VL with D70Q
B16: 12389gL2gH4 hIgG4P (antibody, V domains shown)
VH: B3 VH with V24A, R71K
VL: B3 VL
B17: Rabbit Fab (VR12389) (Fab, V domains shown)
VH: B1 VH
VL: ALVMTQTPASVSEPVGGTVTIKCQASQSIYSYLSWYQQKPGQPPKLLIYKASTLASGVSSRFKGSGSGTQFTLTISDLECGDAATYYCQNHWNVGGNGWPFGGGTEVVVKR
notes: Used for the crystal structure; also called VR12389 RbFab
B18: 12389 (chimeric rabbit V regions/human Fc) expressed as hIgG1 (antibody, V domains shown)
VH: B1 VH
VL: B1 VL

Numbering of substitutions follows the chain as printed.

As usually defined, the Kd is the equilibrium constant for the complex coming apart. As usually defined, the koff is the first-order rate constant of dissociation. As usually defined, the kon is the second-order rate constant of association.

The first test deals with T1, Human HLA-G ECD + B2m (soluble, AVItev10His tag) (human).
T1 construct: also called soluble HLA-G
The test is described as follows: SPR, 25 C, hIgG4P captured via anti-human Fc, HLA-G ECD+B2m 50 nM as analyte.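 Note: biacore T200 readout, 60 s association then 150 s dissociation, reference-cell background subtracted, kinetics fitted to a 1:1 binding model with local Rmax.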 Background: SPR reads the build-up and loss of mass on a sensor chip optically.
Regarding B1, the Kd was found to be 9.69 nM, the koff turned out to be 0.0092 s⁻¹ and the kon turned out to be 949000 M⁻¹ s⁻¹.

As to B2, the Kd was determined as 7.63 nM, the koff stood at 0.00708 s⁻¹ and the kon turned out to be 928000 M⁻¹ s⁻¹.

Take B3: the Kd came to 15.4 nM, the koff worked out at 0.0121 s⁻¹ and the kon stood at 787000 M⁻¹ s⁻¹.

For the molecule B4, the Kd was 10.7 nM, the koff is 0.00907 s⁻¹ and the kon was 850000 M⁻¹ s⁻¹.

As for B5, the Kd stood at 6.06 nM.

Consider B6, for which the Kd was determined as 12.4 nM, the koff worked out at 0.0101 s⁻¹ and the kon turned out to be 817000 M⁻¹ s⁻¹.

On to B7, for which the Kd was 6.33 nM, the koff was found to be 0.00567 s⁻¹ and the kon came to 896000 M⁻¹ s⁻¹.

With B8, the Kd came out at 7.58 nM, the koff came out at 0.00664 s⁻¹ and the kon came to 875000 M⁻¹ s⁻¹.

As to B9, the Kd amounted to 12.5 nM, the koff turned out to be 0.0104 s⁻¹ and the kon turned out to be 839000 M⁻¹ s⁻¹.

For B10, the Kd worked out at 8.25 nM, the koff came to 0.00697 s⁻¹ and the kon stood at 845000 M⁻¹ s⁻¹.

B11: the Kd is 6.61 nM, the koff came out at 0.00632 s⁻¹ and the kon was found to be 956000 M⁻¹ s⁻¹.

In the case of B12, the Kd came out at 7.09 nM, the koff worked out at 0.00603 s⁻¹ and the kon was 850000 M⁻¹ s⁻¹.

With B13, the Kd amounted to 7.39 nM, the koff stood at 0.00624 s⁻¹ and the kon is 844000 M⁻¹ s⁻¹.

With B14, the Kd was found to be 6.72 nM.

In the case of B15, the Kd came out at 7.99 nM, the koff worked out at 0.00678 s⁻¹ and the on-rate constant (kon) worked out at 848000 M⁻¹ s⁻¹.

For B16, the Kd stood at 8.09 nM, the koff turned out to be 0.00718 s⁻¹ and the kon stood at 888000 M⁻¹ s⁻¹.

In a further test the target is T2, PeptideB2mHLAG C42S mut (single-chain peptide-B2m-HLA-G ECD fusion, His tag removed) (human).
T2 construct: Used for complexing and in the crystal structure; also called HLA-G fusion protein
The experiment in a line: complex formation and size exclusion chromatography before crystallisation. Background: Size exclusion chromatography separates by hydrodynamic size, large species first.
For B17, the binding result was “binds”.

Another test deals with T1, Human HLA-G ECD + B2m (soluble, …). The test is described as follows: SPR, 25 C, hIgG1 captured via anti-human Fc, HLA-G ECD+B2m 50 nM as analyte, first experiment.
Consider B18, for which the Kd stood at 10.8 nM, the koff amounted to 0.0091 s⁻¹ and the kon came out at 841000 M⁻¹ s⁻¹.

For another test the target is unchanged. The experiment in a line: SPR, 25 C, hIgG1 captured via anti-human Fc, HLA-G ECD+B2m 50 nM as analyte, second experiment.
As for B18, the Kd was 11.7 nM, the koff came to 0.00918 s⁻¹ and the on-rate (kon) came to 782000 M⁻¹ s⁻¹.

For the origin of these results see patent publication US20250026836A1 (UCB, published 2025).
